The source of these data is article PMC3496615 (Molecular Biology of the Cell, 2012).

The labels stand for the following.
T1: Irc6p (Saccharomyces cerevisiae, UniProt P43615)
T1 sequence (P43615 1-237): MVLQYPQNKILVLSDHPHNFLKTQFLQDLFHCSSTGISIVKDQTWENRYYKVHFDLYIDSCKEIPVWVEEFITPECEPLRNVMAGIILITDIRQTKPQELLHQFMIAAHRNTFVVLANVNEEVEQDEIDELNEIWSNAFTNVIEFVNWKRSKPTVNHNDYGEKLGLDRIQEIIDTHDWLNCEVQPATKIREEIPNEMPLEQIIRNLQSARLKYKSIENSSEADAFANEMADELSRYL

T2: FLAG-Irc6p-K22A (yeast (S. cerevisiae), UniProt P43615 1-237, K22A)
T2 sequence (looked up): T1 sequence (P43615 1-237) with K22A

T3: FLAG-tagged Irc6p (recombinant, purified) (yeast (S. cerevisiae), UniProt P43615 1-237)
T3 sequence (looked up): T1 sequence (P43615 1-237)

B1: FLAG-Irc6pΔC (Irc6p N-terminal region) (domain or fragment, yeast (S. cerevisiae), UniProt P43615 1-179, looked up)
chain: MVLQYPQNKILVLSDHPHNFLKTQFLQDLFHCSSTGISIVKDQTWENRYYKVHFDLYIDSCKEIPVWVEEFITPECEPLRNVMAGIILITDIRQTKPQELLHQFMIAAHRNTFVVLANVNEEVEQDEIDELNEIWSNAFTNVIEFVNWKRSKPTVNHNDYGEKLGLDRIQEIIDTHDWL
B2: GST-Ypt31p (natural protein, yeast (S. cerevisiae), UniProt P38555 1-223, looked up)
chain: MSSEDYGYDYDLLFKIVLIGDSGVGKSNLLSRFTKNEFNMDSKSTIGVEFATRTLEIDGKRIKAQIWDTAGQERYRAITSAYYRGAVGALIVYDISKSSSYENCNHWLSELRENADDNVAVGLIGNKSDLAHLRAVPTEESKTFAQENQLLFTETSALNSENVDKAFEELINTIYQKVSKHQMDLGDSSANGNANGASAPNGPTISLTPTPNENKKANGNNCC
B3: FLAG-Irc6pCT (Irc6p C-terminal region) (domain or fragment, yeast (S. cerevisiae), UniProt P43615 179-237, looked up)
chain: LNCEVQPATKIREEIPNEMPLEQIIRNLQSARLKYKSIENSSEADAFANEMADELSRYL

Numbering of substitutions follows the chain as printed.

One assay has as its target T1, Irc6p. The assay is described as follows: limited proteolysis. Type of assay: binding. The note with it: pH 8, 10 mM CaCl2, 24°C; indirect evidence.
The target of the assay “GST-Ypt31p” is B2. The assay is described as follows: pull-down.
The target in another assay is T2, FLAG-Irc6p-K22A. The assay is described as follows: pull-down.
Assay [1] addresses T3, FLAG-tagged Irc6p (recombinant, …). The assay is described as follows: pull-down.

With `Nc1nc2c(ncn2[C@@H]2O[C@H](COP(=O)(O)OP(=O)(O)NP(=O)(O)O)[C@@H](O)[C@H]2O)c(=O)[nH]1` [GMPPNP], the “limited proteolysis (chymotrypsin), protection” value on Irc6p is recorded as “by limited proteolysis was slowed in the presence of GMPPNP (Figure S2B)”. Turning to B1, the binding result with GST-Ypt31p is recorded as “binds”. On to B2, for which the binding result (with FLAG-Irc6p-K22A; in assay [1]) was “binds” each time. B3: the binding result with GST-Ypt31p is on record as “binds”.
